The target in this assay is T1, Cyclin Y-Flag (human, UniProt Q8ND76-1 1-341).
T1 construct: Cyclin Y, human, isoform 1 (CCNYiso1 cDNA clone in pcDNA3-FLAG); In cells partly phosphorylated at S326 (more after AICAR/A769662) and at S336; also called Cyclin Y-Flag-wt; wild-type Cyclin Y; source: HeLa or U2OS, transfected, in lysate
The experiment in a line: co-IP; HeLa cells transfected with Cyclin Y-Flag, with or without GFP-tagged CDK; with or without 0.5 mM AICAR/50 µM A769662 for 1 h; lysate in Frackelton buffer, anti-FLAG M2 beads 2 h at 4 °C, three washes, immunoblot. The following applies: partners not purified.

T1 sequence (Q8ND76 whole entry, canonical isoform): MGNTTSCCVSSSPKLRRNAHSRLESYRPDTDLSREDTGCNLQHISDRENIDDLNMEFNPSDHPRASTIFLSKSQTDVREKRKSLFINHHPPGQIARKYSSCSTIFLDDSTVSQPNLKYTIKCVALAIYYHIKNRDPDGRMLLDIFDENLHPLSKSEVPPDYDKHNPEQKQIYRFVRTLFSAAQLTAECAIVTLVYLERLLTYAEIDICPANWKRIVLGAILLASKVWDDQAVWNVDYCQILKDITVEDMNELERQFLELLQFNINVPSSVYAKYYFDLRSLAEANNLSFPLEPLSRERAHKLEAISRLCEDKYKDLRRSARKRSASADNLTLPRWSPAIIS

B1: GFP-CDK16 (enzyme)
chain: not shown
notes: Cyclin-dependent kinase 16 (CDK16), human, isoform 1; also called GFP-CDK16-wt; PCTAIRE1; source: HeLa, transfected, in lysate
Take B1: the “fold change of co-immunoprecipitated CDK16 with AICAR/A769662 against untreated” value was 2 fold.

Values taken from paper PMC7042329, “AMPK-dependent activation of the Cyclin Y/CDK16 complex controls autophagy” (Nature Communications, 2020).
